Assay results published in US20180273587A1 (AILERON THERAPEUTICS, published 2018).
Starred links: 1 amine or outer side, 2 acyl side, 3 side chain; linkers in the order of their positions; H or OH if unused. Positions of bridges follow the written chain, without caps; N, C: chain ends. Non-standard residues stand in square brackets, D forms with d. Gly(1-adamantyl) = N[C@H](C(=O)O)C12CC3CC(CC(C3)C1)C2; hhL = hhLeu, CC(C)CCC[C@H](N[*:1])C(=O)[*:2]; hCha = N[C@@H](CCC1CCCCC1)C(=O)O; hPhe = N[C@@H](CCc1ccccc1)C(=O)O; R8 = C=CCCCCCC[C@@](C)(N)C(=O)O; Cha = N[C@@H](CC1CCCCC1)C(=O)O; S5 = C=CCCC[C@](C)(N)C(=O)O

B1: SEQ ID NO: 1668 (peptide)
peptide: Ac-IWIAQALR[R8]AGDQFN[S5]YYA-NH2
modifications: staple 9-16
SMILES: CC[C@H](C)[C@H](NC(C)=O)C(=O)N[C@@H](Cc1c[nH]c2ccccc12)C(=O)N[C@H](C(=O)N[C@@H](C)C(=O)N[C@@H](CCC(N)=O)C(=O)N[C@@H](C)C(=O)N[C@@H](CC(C)C)C(=O)N[C@@H](CCCNC(=N)N)C(=O)N[C@]1(C)CCCCCCC=CCCC[C@@](C)(C(=O)N[C@@H](Cc2ccc(O)cc2)C(=O)N[C@@H](Cc2ccc(O)cc2)C(=O)N[C@@H](C)C(N)=O)NC(=O)[C@H](CC(N)=O)NC(=O)[C@H](Cc2ccccc2)NC(=O)[C@H](CCC(N)=O)NC(=O)[C@H](CC(=O)O)NC(=O)CNC(=O)[C@H](C)NC1=O)[C@@H](C)CC
B2: SEQ ID NO: 1672 (peptide)
peptide: Ac-IWFAQALR[R8]IGDQFN[S5]YYA-NH2
modifications: staple 9-16
SMILES: CC[C@H](C)[C@H](NC(C)=O)C(=O)N[C@@H](Cc1c[nH]c2ccccc12)C(=O)N[C@@H](Cc1ccccc1)C(=O)N[C@@H](C)C(=O)N[C@@H](CCC(N)=O)C(=O)N[C@@H](C)C(=O)N[C@@H](CC(C)C)C(=O)N[C@@H](CCCNC(=N)N)C(=O)N[C@]1(C)CCCCCCC=CCCC[C@@](C)(C(=O)N[C@@H](Cc2ccc(O)cc2)C(=O)N[C@@H](Cc2ccc(O)cc2)C(=O)N[C@@H](C)C(N)=O)NC(=O)[C@H](CC(N)=O)NC(=O)[C@H](Cc2ccccc2)NC(=O)[C@H](CCC(N)=O)NC(=O)[C@H](CC(=O)O)NC(=O)CNC(=O)[C@H]([C@@H](C)CC)NC1=O
B3: SEQ ID NO: 1680 (peptide)
peptide: Ac-IW[hCha]AQALR[R8]IGDAFN[S5]YYA-NH2
modifications: staple 9-16
SMILES: CC[C@H](C)[C@H](NC(C)=O)C(=O)N[C@@H](Cc1c[nH]c2ccccc12)C(=O)N[C@@H](CCC1CCCCC1)C(=O)N[C@@H](C)C(=O)N[C@@H](CCC(N)=O)C(=O)N[C@@H](C)C(=O)N[C@@H](CC(C)C)C(=O)N[C@@H](CCCNC(=N)N)C(=O)N[C@]1(C)CCCCCCC=CCCC[C@@](C)(C(=O)N[C@@H](Cc2ccc(O)cc2)C(=O)N[C@@H](Cc2ccc(O)cc2)C(=O)N[C@@H](C)C(N)=O)NC(=O)[C@H](CC(N)=O)NC(=O)[C@H](Cc2ccccc2)NC(=O)[C@H](C)NC(=O)[C@H](CC(=O)O)NC(=O)CNC(=O)[C@H]([C@@H](C)CC)NC1=O
notes: also called Ac-IWhChaAQALR$r8IGDAFN$YYA-NH2
B4: SEQ ID NO: 1678 (peptide)
peptide: Ac-IW[hhL]AQALR[R8]IGDAFN[S5]YYA-NH2
modifications: staple 9-16
SMILES: CC[C@H](C)[C@H](NC(C)=O)C(=O)N[C@@H](Cc1c[nH]c2ccccc12)C(=O)N[C@@H](CCCC(C)C)C(=O)N[C@@H](C)C(=O)N[C@@H](CCC(N)=O)C(=O)N[C@@H](C)C(=O)N[C@@H](CC(C)C)C(=O)N[C@@H](CCCNC(=N)N)C(=O)N[C@]1(C)CCCCCCC=CCCC[C@@](C)(C(=O)N[C@@H](Cc2ccc(O)cc2)C(=O)N[C@@H](Cc2ccc(O)cc2)C(=O)N[C@@H](C)C(N)=O)NC(=O)[C@H](CC(N)=O)NC(=O)[C@H](Cc2ccccc2)NC(=O)[C@H](C)NC(=O)[C@H](CC(=O)O)NC(=O)CNC(=O)[C@H]([C@@H](C)CC)NC1=O
notes: also called Ac-IWhhLAQALR$r8IGDAFN$YYA-NH2
B5: SEQ ID NO: 1671 (peptide)
peptide: Ac-IWFAQALR[R8]IGDAFN[S5]YYA-NH2
modifications: staple 9-16
SMILES: CC[C@H](C)[C@H](NC(C)=O)C(=O)N[C@@H](Cc1c[nH]c2ccccc12)C(=O)N[C@@H](Cc1ccccc1)C(=O)N[C@@H](C)C(=O)N[C@@H](CCC(N)=O)C(=O)N[C@@H](C)C(=O)N[C@@H](CC(C)C)C(=O)N[C@@H](CCCNC(=N)N)C(=O)N[C@]1(C)CCCCCCC=CCCC[C@@](C)(C(=O)N[C@@H](Cc2ccc(O)cc2)C(=O)N[C@@H](Cc2ccc(O)cc2)C(=O)N[C@@H](C)C(N)=O)NC(=O)[C@H](CC(N)=O)NC(=O)[C@H](Cc2ccccc2)NC(=O)[C@H](C)NC(=O)[C@H](CC(=O)O)NC(=O)CNC(=O)[C@H]([C@@H](C)CC)NC1=O
B6: SEQ ID NO: 1681 (peptide)
peptide: Ac-IW[hPhe]AQALR[R8]IGDAFN[S5]YYA-NH2
modifications: staple 9-16
SMILES: CC[C@H](C)[C@H](NC(C)=O)C(=O)N[C@@H](Cc1c[nH]c2ccccc12)C(=O)N[C@@H](CCc1ccccc1)C(=O)N[C@@H](C)C(=O)N[C@@H](CCC(N)=O)C(=O)N[C@@H](C)C(=O)N[C@@H](CC(C)C)C(=O)N[C@@H](CCCNC(=N)N)C(=O)N[C@]1(C)CCCCCCC=CCCC[C@@](C)(C(=O)N[C@@H](Cc2ccc(O)cc2)C(=O)N[C@@H](Cc2ccc(O)cc2)C(=O)N[C@@H](C)C(N)=O)NC(=O)[C@H](CC(N)=O)NC(=O)[C@H](Cc2ccccc2)NC(=O)[C@H](C)NC(=O)[C@H](CC(=O)O)NC(=O)CNC(=O)[C@H]([C@@H](C)CC)NC1=O
notes: also called Ac-IWhFAQALR$r8IGDAFN$YYA-NH2
B7: SEQ ID NO: 1677 (peptide)
peptide: Ac-IW[Cha]AQALR[R8]IGDAFN[S5]YYA-NH2
modifications: staple 9-16
SMILES: CC[C@H](C)[C@H](NC(C)=O)C(=O)N[C@@H](Cc1c[nH]c2ccccc12)C(=O)N[C@@H](CC1CCCCC1)C(=O)N[C@@H](C)C(=O)N[C@@H](CCC(N)=O)C(=O)N[C@@H](C)C(=O)N[C@@H](CC(C)C)C(=O)N[C@@H](CCCNC(=N)N)C(=O)N[C@]1(C)CCCCCCC=CCCC[C@@](C)(C(=O)N[C@@H](Cc2ccc(O)cc2)C(=O)N[C@@H](Cc2ccc(O)cc2)C(=O)N[C@@H](C)C(N)=O)NC(=O)[C@H](CC(N)=O)NC(=O)[C@H](Cc2ccccc2)NC(=O)[C@H](C)NC(=O)[C@H](CC(=O)O)NC(=O)CNC(=O)[C@H]([C@@H](C)CC)NC1=O
notes: also called Ac-IWChaAQALR$r8IGDAFN$YYA-NH2
B8: SEQ ID NO: 1669 (peptide)
peptide: Ac-IWIAQALR[R8]FGDAFN[S5]YYA-NH2
modifications: staple 9-16
SMILES: CC[C@H](C)[C@H](NC(C)=O)C(=O)N[C@@H](Cc1c[nH]c2ccccc12)C(=O)N[C@H](C(=O)N[C@@H](C)C(=O)N[C@@H](CCC(N)=O)C(=O)N[C@@H](C)C(=O)N[C@@H](CC(C)C)C(=O)N[C@@H](CCCNC(=N)N)C(=O)N[C@]1(C)CCCCCCC=CCCC[C@@](C)(C(=O)N[C@@H](Cc2ccc(O)cc2)C(=O)N[C@@H](Cc2ccc(O)cc2)C(=O)N[C@@H](C)C(N)=O)NC(=O)[C@H](CC(N)=O)NC(=O)[C@H](Cc2ccccc2)NC(=O)[C@H](C)NC(=O)[C@H](CC(=O)O)NC(=O)CNC(=O)[C@H](Cc2ccccc2)NC1=O)[C@@H](C)CC
B9: SEQ ID NO: 1670 (peptide)
peptide: Ac-IWIAQALR[R8]FGDQFN[S5]YYA-NH2
modifications: staple 9-16
SMILES: CC[C@H](C)[C@H](NC(C)=O)C(=O)N[C@@H](Cc1c[nH]c2ccccc12)C(=O)N[C@H](C(=O)N[C@@H](C)C(=O)N[C@@H](CCC(N)=O)C(=O)N[C@@H](C)C(=O)N[C@@H](CC(C)C)C(=O)N[C@@H](CCCNC(=N)N)C(=O)N[C@]1(C)CCCCCCC=CCCC[C@@](C)(C(=O)N[C@@H](Cc2ccc(O)cc2)C(=O)N[C@@H](Cc2ccc(O)cc2)C(=O)N[C@@H](C)C(N)=O)NC(=O)[C@H](CC(N)=O)NC(=O)[C@H](Cc2ccccc2)NC(=O)[C@H](CCC(N)=O)NC(=O)[C@H](CC(=O)O)NC(=O)CNC(=O)[C@H](Cc2ccccc2)NC1=O)[C@@H](C)CC
B10: SEQ ID NO: 1676 (peptide)
peptide: Ac-IWIAQALR[R8]IGDQFA[S5]YYA-NH2
modifications: staple 9-16
SMILES: CC[C@H](C)[C@H](NC(C)=O)C(=O)N[C@@H](Cc1c[nH]c2ccccc12)C(=O)N[C@H](C(=O)N[C@@H](C)C(=O)N[C@@H](CCC(N)=O)C(=O)N[C@@H](C)C(=O)N[C@@H](CC(C)C)C(=O)N[C@@H](CCCNC(=N)N)C(=O)N[C@]1(C)CCCCCCC=CCCC[C@@](C)(C(=O)N[C@@H](Cc2ccc(O)cc2)C(=O)N[C@@H](Cc2ccc(O)cc2)C(=O)N[C@@H](C)C(N)=O)NC(=O)[C@H](C)NC(=O)[C@H](Cc2ccccc2)NC(=O)[C@H](CCC(N)=O)NC(=O)[C@H](CC(=O)O)NC(=O)CNC(=O)[C@H]([C@@H](C)CC)NC1=O)[C@@H](C)CC
B11: SEQ ID NO: 1674 (peptide)
peptide: Ac-IWIAQALR[R8]IGNAFN[S5]YYA-NH2
modifications: staple 9-16
SMILES: CC[C@H](C)[C@H](NC(C)=O)C(=O)N[C@@H](Cc1c[nH]c2ccccc12)C(=O)N[C@H](C(=O)N[C@@H](C)C(=O)N[C@@H](CCC(N)=O)C(=O)N[C@@H](C)C(=O)N[C@@H](CC(C)C)C(=O)N[C@@H](CCCNC(=N)N)C(=O)N[C@]1(C)CCCCCCC=CCCC[C@@](C)(C(=O)N[C@@H](Cc2ccc(O)cc2)C(=O)N[C@@H](Cc2ccc(O)cc2)C(=O)N[C@@H](C)C(N)=O)NC(=O)[C@H](CC(N)=O)NC(=O)[C@H](Cc2ccccc2)NC(=O)[C@H](C)NC(=O)[C@H](CC(N)=O)NC(=O)CNC(=O)[C@H]([C@@H](C)CC)NC1=O)[C@@H](C)CC
B12: SEQ ID NO: 1679 (peptide)
peptide: Ac-IW[Gly(1-adamantyl)]AQALR[R8]IGDAFN[S5]YYA-NH2
modifications: staple 9-16
SMILES: CC[C@H](C)[C@H](NC(C)=O)C(=O)N[C@@H](Cc1c[nH]c2ccccc12)C(=O)N[C@H](C(=O)N[C@@H](C)C(=O)N[C@@H](CCC(N)=O)C(=O)N[C@@H](C)C(=O)N[C@@H](CC(C)C)C(=O)N[C@@H](CCCNC(=N)N)C(=O)N[C@]1(C)CCCCCCC=CCCC[C@@](C)(C(=O)N[C@@H](Cc2ccc(O)cc2)C(=O)N[C@@H](Cc2ccc(O)cc2)C(=O)N[C@@H](C)C(N)=O)NC(=O)[C@H](CC(N)=O)NC(=O)[C@H](Cc2ccccc2)NC(=O)[C@H](C)NC(=O)[C@H](CC(=O)O)NC(=O)CNC(=O)[C@H]([C@@H](C)CC)NC1=O)C12CC3CC(CC(C3)C1)C2
notes: also called Ac-IWAdmAQALR$r8IGDAFN$YYA-NH2

Biological target: T1, MCL-1 (UniProt Q07820 172-327, limits assumed)
T1 construct: also called Myeloid cell leukemia 1
T1 sequence (Q07820 172-327 limits assumed): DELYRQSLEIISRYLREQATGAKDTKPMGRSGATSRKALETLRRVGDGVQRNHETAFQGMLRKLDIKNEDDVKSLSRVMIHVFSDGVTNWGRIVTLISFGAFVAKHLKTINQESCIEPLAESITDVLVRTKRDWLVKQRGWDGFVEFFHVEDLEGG
Experiment: Ki table, method not stated

| Ki | Binder |
| --- | --- |
| 122 nM | B1 |
| 29.3 nM | B2 |
| 22.2 nM | B3 |
| 21.2 nM | B4 |
| 22 nM | B5 |
| 53.1 nM | B6 |
| 43.8 nM | B7 |
| 27.8 nM | B8 |
| 74.1 nM | B9 |
| 22.8 nM | B10 |
| 195 nM | B11 |
| 21.6 nM | B12 |

Biological target: BCL-XL (UniProt Q07817 1-209)
Sequence (Q07817 1-209): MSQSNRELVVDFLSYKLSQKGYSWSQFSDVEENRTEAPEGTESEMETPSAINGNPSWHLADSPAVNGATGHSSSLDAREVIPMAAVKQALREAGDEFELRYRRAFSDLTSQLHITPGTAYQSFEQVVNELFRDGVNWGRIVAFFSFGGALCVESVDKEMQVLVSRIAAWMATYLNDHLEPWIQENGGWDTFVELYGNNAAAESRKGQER
Experiment: Ki table, method not stated

| Ki | Binder |
| --- | --- |
| 1.9 nM | B1 |
| 25.9 nM | B2 |
| 13.1 nM | B3 |
| 11.9 nM | B4 |
| 28 nM | B5 |
| 69.7 nM | B6 |
| 14.4 nM | B7 |
| 15.8 nM | B8 |
| 25.6 nM | B9 |
| 53.5 nM | B10 |
| 416 nM | B11 |
| 7.3 nM | B12 |

Biological target: BCL-2 (UniProt P10415 1-217, limits assumed)
Sequence (P10415 1-217 limits assumed): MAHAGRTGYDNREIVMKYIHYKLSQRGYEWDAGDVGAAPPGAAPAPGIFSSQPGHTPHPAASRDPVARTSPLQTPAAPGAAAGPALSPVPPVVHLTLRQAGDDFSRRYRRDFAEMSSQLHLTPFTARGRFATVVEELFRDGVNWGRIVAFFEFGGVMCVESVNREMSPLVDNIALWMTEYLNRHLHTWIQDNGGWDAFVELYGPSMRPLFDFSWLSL
Experiment: Ki table, method not stated

| Ki | Binder |
| --- | --- |
| 4.8 nM | B1 |
| 205 nM | B2 |
| 182 nM | B3 |
| 161 nM | B4 |
| 179 nM | B5 |
| 221 nM | B6 |
| 105 nM | B7 |
| 68.5 nM | B8 |
| 66.1 nM | B9 |
| 84.9 nM | B10 |
| 405 nM | B11 |
| 59 nM | B12 |
